The data set concerns the target T1, GST-SXL (Sex-lethal) (UniProt P19339).
T1 sequence (P19339 whole entry, looked up): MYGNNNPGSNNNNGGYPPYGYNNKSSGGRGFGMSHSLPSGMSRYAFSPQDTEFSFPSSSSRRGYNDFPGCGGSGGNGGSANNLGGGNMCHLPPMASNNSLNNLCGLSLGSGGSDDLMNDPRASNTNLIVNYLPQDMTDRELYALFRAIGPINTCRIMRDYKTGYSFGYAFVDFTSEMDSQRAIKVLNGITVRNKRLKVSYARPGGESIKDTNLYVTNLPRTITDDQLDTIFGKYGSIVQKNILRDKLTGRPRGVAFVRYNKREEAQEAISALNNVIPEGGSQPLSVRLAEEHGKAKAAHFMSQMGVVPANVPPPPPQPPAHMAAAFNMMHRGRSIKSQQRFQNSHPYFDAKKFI
The data set can be described thus: EMSA. The settings on record: EMSA as in cited refs 28 and 40, buffer, salt and pH not stated, GST-SXL at 166, 55 and 18 ng/ul, SELEX binding at 30 C for 30 min in 100 ul.

Where [1] appears, read: within 2-3-fold of tra Py-tract.

Broadly, the Kd is the constant that tells how readily two partners part at equilibrium. For “UUUUUUUCUUUUUUUUCU [TnI 5' UTR SXL-binding site RNA (cDNA SELEX clone 10-15h_5)]”, the Kd under setting [1] was 1 nM.

Regarding “UUUUUGUUGUUUUUUUU [tra non-sex-specific polypyrimidine tract/3' splice site RNA]”, the Kd was determined as 1 nM.

Regarding “UUUUUUUUUCUUUUUUUUGU [Gs2 3' UTR SXL-binding site RNA (cDNA SELEX clone 10-15h_14)]”, the Kd under setting [1] is 1 nM.

For the origin of these results see paper PMC8143406.
